Experimental findings from paper PMC2566886 are described below.

The experiment concerns the target human Nudt16 protein (human) (UniProt Q96DE0). Kind of experiment: cross-linking.

Sequence of human Nudt16 protein (Q96DE0 whole entry): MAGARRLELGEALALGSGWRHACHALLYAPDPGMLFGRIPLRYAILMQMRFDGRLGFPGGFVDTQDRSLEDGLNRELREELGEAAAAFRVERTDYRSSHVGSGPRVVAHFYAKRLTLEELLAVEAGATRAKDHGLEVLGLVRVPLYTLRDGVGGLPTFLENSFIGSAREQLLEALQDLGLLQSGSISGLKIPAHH

For “human Nudt16 protein (from UniProt Q96DE0 1-195) (enzyme)”, the stoichiometry N (as a rule, a count of units in the complex or per binding partner) worked out at 2.
